B1: Far upstream element-binding protein 1, residues 98 to 169; numbered along this chain, Q96AE4 (parent)
chain: RSVMTEEYKVPDGMVGFIIGRGGEQISRIQQESGCKIQIAPDSGGLPERSCMLTGTPESVQSAKRLLDQIVE

± gives the uncertainty stated by the source.

The data set covers variants of B1. As to the kind of experiment: abundance fitness (aPCA) (normalised: wild type 0, dead -1); higher = more abundant; growth selection in yeast, the domain comes from the species named. The settings on record: Homo sapiens.
RSVMTEEYKVPDGMVGFIIGRGGEQISRIQQESGCKIQIAPDSGGLPERSCMLTGTPESVQCAKRLLDQIVE: the abundance fitness was determined as 0.025 ± 0.038.
As for RSVMTEEYKVPDGMVGFIIGRGGEQISRIQQESGCKIQIAPDSGGLPERSCMLTGTPESVQAAKRLLDQIVE, the figure is -0.03 ± 0.026; as for RSVMTEEYKVPDGMVGFIIGRGGEQISRIQQESGCKIQIAPDSGGLPERSCMLTGTWESVQSAKRLLDQIVE, -0.104 ± 0.034.
RSVMTEEYKVPDGMVGFIIGRGGEQISRIQQESGCKIQIAPDSGGLPERSCMLTGTVESVQSAKRLLDQIVE: the abundance fitness is -0.086 ± 0.029.
As for RSVMTEEYKVPDGMVGFIIGRGGEQISRIQQESGCKIQIAPDSGGLPERSCMLTGTYESVQSAKRLLDQIVE, the figure is -0.049 ± 0.054.
As for RSVMTEEYKVPDGMVGFIIGRGGEQISRIQQESGCKIQIAPDSGGLPERSCMLTGTRESVQSAKRLLDQIVE, the figure is -0.021 ± 0.024.
For RSVMTEEYKVPDGMVGFIIGRGGEQISRIQQESGCKIQIAPDSGGLPERSCMLTGTSESVQSAKRLLDQIVE the value was -0.027 ± 0.03.
As for RSVMTEEYKVPDGMVGFIIGRGGEQISRIQQESGCKIQIAPDSGGLPERSCMLTGTPESHQSAKRLLDQIVE, the abundance fitness is -0.525 ± 0.059.
As for RSVMTEEYKVPDGMVGFIIGRGGEQISRIQQESGCKIQIAPDSGGLPERSCMLTGTPESWQSAKRLLDQIVE, the figure is -0.999 ± 0.056.
As for RSVMTEEYKVPDGMVGFIIGRGGEQISRIQQESGCKIQIAPDSGGLPERSCMLTGTPESEQSAKRLLDQIVE, the figure is -0.855 ± 0.044; as for RSVMTEEYKVPDGMVGFIIGRGGEQISRIQQESGCKIQIAPDSGGLPERSCMLTGTPESDQSAKRLLDQIVE, -0.768 ± 0.06; as for RSVMTEEYKVPDGMVGFIIGRGGEQISRIQQESGCKIQIAPDSGGLPERSCMLTGTPESNQSAKRLLDQIVE, -0.109 ± 0.047.
For RSVMTEEYKVPDGMVGFIIGRGGEQISRIQQESGCKIQIAPDSGGLPERSCMLTGTPESRQSAKRLLDQIVE the value was -0.006 ± 0.025; for RSVMTEEYKVPDGMVGFIIGRGGEQISRIQQESGCKIQIAPDSGGLPERSCMLTGTPESTQSAKRLLDQIVE, -0.13 ± 0.036; for RSVMTEEYKVPDGMVGFIIGRGGEQISRIQQESGCKIQIAPDSGGLPERSCMLTGTPESAQSAKRLLDQIVE, -0.307 ± 0.03.
RSVMTEEYKVPDGMVGFIIGRGGEQISRIQQESGCKIQIAPDSGGLPERSCMLTGTPESPQSAKRLLDQIVE: the abundance fitness is -0.871 ± 0.075.
With RSVMTEEYKVPDGMVGFIIGRGGEQISRIQQESGCKIQIAPDSGGLPERSCMLTGTPESQQSAKRLLDQIVE, the abundance fitness was -0.174 ± 0.042.
In the case of RSVMTEEYKVPDGMVGFIIGRGGEQISRIQQESGCKIQIAPDSGGLPERSCMLTGTPESSQSAKRLLDQIVE, the abundance fitness was -0.57 ± 0.037.
For RSVMTEEYKVPDGMVGFIIGRGGEQISRIQQESGCKIQIAPDSGGLPERSCMLTGTPESYQSAKRLLDQIVE the value was -0.781 ± 0.07.
For RSVMTEEYKVPDGMVGFIIGRGGEQISRIQQESGCKIQIAPDSGGLPERSCMLTGTPESFQSAKRLLDQIVE the value was -0.558 ± 0.069; for RSVMTEEYKVPDGMVGFIIGRGGEQISRIQQESGCKIQIAPDSGGLPERSCMLTGTPESLQSAKRLLDQIVE, -0.009 ± 0.03.
Consider RSVMTEEYKVPDGMVGFIIGRGGEQISRIQQESGCKIQIAPDSGGLPERSCMLTGTPESKQSAKRLLDQIVE, for which the abundance fitness was -0.223 ± 0.036.
For RSVMTEEYKVPDGMVGFIIGRGGEQISRIQQESGCKIQIAPDSGGLPERSCMLTGTPESIQSAKRLLDQIVE the value was 0.025 ± 0.045.
For RSVMTEEYKVPDGMVGFIIGRGGEQISRIQQESGCKIQIAPDSGGLPERSCMLTGTPESVYSAKRLLDQIVE the value was -0.049 ± 0.04; for RSVMTEEYKVPDGMVGFIIGRGGEQISRIQQESGCKIQIAPDSGGLPERSCMLTGTPESVMSAKRLLDQIVE, -0.007 ± 0.034.
As for RSVMTEEYKVPDGMVGFIIGRGGEQISRIQQESGCKIQIAPDSGGLPERSCMLTGTPESVHSAKRLLDQIVE, the figure is -0.051 ± 0.041; as for RSVMTEEYKVPDGMVGFIIGRGGEQISRIQQESGCKIQIAPDSGGLPERSCMLTGTPESVSSAKRLLDQIVE, -0.009 ± 0.027; as for RSVMTEEYKVPDGMVGFIIGRGGEQISRIQQESGCKIQIAPDSGGLPERSCMLTGTPESVTSAKRLLDQIVE, -0.002 ± 0.033.
With RSVMTEEYKVPDGMVGFIIGRGGEQISRIQQESGCKIQIAPDSGGLPERSCMLTGTPESVCSAKRLLDQIVE, the abundance fitness is -0.003 ± 0.034.
For RSVMTEEYKVPDGMVGFIIGRGGEQISRIQQESGCKIQIAPDSGGLPERSCMLTGTPESVFSAKRLLDQIVE the value was -0.031 ± 0.045; for RSVMTEEYKVPDGMVGFIIGRGGEQISRIQQESGCKIQIAPDSGGLPERSCMLTGTPESVLSAKRLLDQIVE, -0.003 ± 0.027; for RSVMTEEYKVPDGMVGFIIGRGGEQISRIQQESGCKIQIAPDSGGLPERSCMLTGTPESVVSAKRLLDQIVE, -0.035 ± 0.027.
As for RSVMTEEYKVPDGMVGFIIGRGGEQISRIQQESGCKIQIAPDSGGLPERSCMLTGTPESVASAKRLLDQIVE, the figure is -0.003 ± 0.028; as for RSVMTEEYKVPDGMVGFIIGRGGEQISRIQQESGCKIQIAPDSGGLPERSCMLTGTPESVGSAKRLLDQIVE, 0.001 ± 0.024.
Regarding RSVMTEEYKVPDGMVGFIIGRGGEQISRIQQESGCKIQIAPDSGGLPERSCMLTGTPESVNSAKRLLDQIVE, the abundance fitness was -0.021 ± 0.043.
For RSVMTEEYKVPDGMVGFIIGRGGEQISRIQQESGCKIQIAPDSGGLPERSCMLTGTPESVPSAKRLLDQIVE the value was -0.463 ± 0.038; for RSVMTEEYKVPDGMVGFIIGRGGEQISRIQQESGCKIQIAPDSGGLPERSCMLTGTPESVWSAKRLLDQIVE, -0.058 ± 0.03.
